8 molecules from paper PMC10499821 (Nature Communications, 2023) can be followed below.

The target of experiment [1] is Nsp16 (SARS-CoV-2, UniProt P0DTD1 6799-7096). Nature of the experiment: fluorescence polarisation. Particulars: both partners purified.
In experiment [2] the target is Nsp9 (SARS-CoV-2, UniProt P0DTD1). Nature of the experiment: fluorescence polarisation. The note with it: both partners purified. In general terms: In fluorescence polarisation assays a small probe gives low polarisation when free and higher when bound to something large.

Where no end group is shown, it is not given here. The star is where a group is joined. FITC = O=C1OC2(c3ccc(O)cc3Oc3cc(O)ccc32)c2ccc(NC(=S)*)cc21

B1: DYRK1B_(395–410) (peptide)
peptide: PGHSPADYLRFQDLVL
notes: also called DYRK1B peptide; DYRK1B_(394–409)
The term Kd denotes the constant that tells how readily two partners part at equilibrium. A high value points to weaker binding. For B1, binding in experiment [1] was characterised by a dissociation constant (Kd) of 56 µM. In experiment [2], FQGAWLGCPEPWEPLL (peptide, UniProt Q99466 1605-1620, looked up, also called NOTCH4 peptide) [NOTCH4_(1605–1620)] yielded a Kd of roughly 130 µM. As to NQDMSAWFNLFADLDP (also called ICA1L peptide) [ICA1L_(450–465)], the Kd in experiment [1] amounted to 30 µM. As for {FITC}-AEGIDIGEMPSYDLVL [FITC-NKRF_(8–23)], the binding result in experiment [2] is “binds”. The same measure, in the same setting: with PAHPDGFALGRAPLA (also called LMTK3 peptide) [LMTK3_(22–36)] the entry was “binds”. On the same count and under the same terms, the entry for MNIQEQGFPLDLGAS (also called Axin-1 peptide) [AXIN1_(1–15)] is “binds”; for AEGIDIGEMPSYDLVL (also called NKRF peptide) [NKRF_(8–23)] it is “binds”. Molecule EDPLDSYLNFQALISP (also called FLJ43738 peptide) [FLJ43738_(76–91)] displayed a Kd in experiment [1] of 62 µM. In other words, the double-digit micromolar range.
